Measurements as given in patent US20050100965A1.

Molecular target: recombinant IL18 (YK27-1) (Homo sapiens (Human)) (UniProt Q14116)
Assay: cell-based or functional assay

IFN (interferon γ) transcript level, quantitative PCR, whole blood stimulated with IL18+IL12, donor1n (Unstimulated 0.002, Stimulated 0.339): 0.07
IFN (interferon γ) transcript level, quantitative PCR, whole blood stimulated with IL18+IL12, donor 3n (Unstimulated 0.001, Stimulated 0.187): 0.026
IFN (interferon γ) transcript level, quantitative PCR, whole blood stimulated with IL18+IL12, donor4n (Unstimulated 0.001, Stimulated 0.082): 0.027
IFN (interferon γ) transcript level, quantitative PCR, whole blood stimulated with IL18+IL12, donor 5n (Unstimulated 0.003, Stimulated 0.012): 0.006
IFN (interferon γ) transcript level, quantitative PCR, whole blood stimulated with IL18+IL12, donor6n (Unstimulated 0.002, Stimulated 0.076): 0.01
IFN (interferon γ) transcript level, quantitative PCR, whole blood stimulated with IL18+IL12, donor7n (Unstimulated 0.002, Stimulated 0.049): 0.012
IFN (interferon γ) transcript level, quantitative PCR, whole blood stimulated with IL18+IL12, donor8n (Unstimulated 0.002, Stimulated 0.049): 0.012
IFN (interferon γ) transcript level, quantitative PCR, whole blood stimulated with IL18+IL12, donor 9n (Unstimulated 0.001, Stimulated 1.250): 0
IFN (interferon γ) transcript level, quantitative PCR, whole blood stimulated with IL18+IL12, donor10n (Unstimulated 0.002, Stimulated 0.361): 0.002
B1: Murine anti-human IL-18 mAb (125-2H) (antibody, from another filing, V domains shown)
VH: EIQLQQSGPELVKPGASVKVSCKASGYSFTDYFIYWVKQSHGKSLEWIGDIDPYNGDTSYNQKFRDKATLTVDQSSTTAFMHLNSLTSEDSAVYFCARGLRFWGQGTLVTVSA
VL: DIQMTQSPSSLSASLGERVSLTCRASQDIGSKLYWLQQEPDGTFKRLIYATSSLDSGVPKRFSGSRSGSDYSLTISSLESEDFVDYYCLQYASSPYTFGGGTKLAIKR
